Experimental data published in the supplement of paper PMC10724198.
± gives the standard deviation of the averaged measurements.

Each sequence was assayed on Saccharomyces cerevisiae (assay: protein stability index of tFT-peptide fusion (C-terminal peptide) (PSI (0-1 scale)); higher = more stable (slower turnover)). Settings: genetic background: wild type; temperature: 30 C.
Experimental: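 Multiplexed protein stability (MPS) profiling in S. cerevisiae. Random 12-aa peptides (tFT-X12 library) are fused to the C-terminus of a sfGFP-mCherry tandem fluorescent timer, after mCherry and a GGGS linker. Cells are FACS-sorted into 8 mCherry/sfGFP bins and deep-sequenced. The protein stability index (PSI) is the read-weighted bin average, scaled from 0 (unstable) to 1 (stable). Only peptides with >10 reads are reported; cells were grown at 30 °C in SC-His with glucose.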
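Also: PSI is a weighted mean of sequencing reads over stability bins, variants kept only with over 10 reads, mCherry proximal and sfGFP distal, peptide attached via GGGS linker.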

| Sequence | protein stability index |
| --- | --- |
| AACGELLKYSLS | 0.576 ± 0.011 |
| AADNTGRNKGPQ | 0.685 ± 0.0095 |
| AAEPGGGTALRG | 0.637 ± 0.029 |
| AAGGPGGPELWG | 0.749 ± 0.14 |
| AAGLHFYIFRGI | 0.669 ± 0.025 |
| AAGRRGWGRGRG | 0.788 ± 0.15 |
| AAGWRPEGSGAF | 0.725 ± 0.033 |
| AALLSSPPLSPP | 0.662 ± 0.062 |
| AAPSRASDLARP | 0.661 ± 0.087 |
| AARCSPSQEDSF | 0.697 ± 0.12 |
| AARGILLASRRD | 0.739 ± 0.092 |
| AASGCGRPGCSA | 0.663 ± 0.059 |
| AAVGELLFTSLV | 0.699 ± 0.022 |
| AAVPPLSQSPDS | 0.674 ± 0.03 |
| ACCIFAFHRSLS | 0.487 ± 0.032 |
| ACFVVDHGPLHL | 0.695 ± 0.031 |
| ACPLPPLPTPLP | 0.736 ± 0.04 |
| ACPQPSPSPSQY | 0.672 ± 0.048 |
| ACRREMISVLYT | 0.624 ± 0.0075 |
| ACTPHLPLPAPQ | 0.706 ± 0.016 |
| ACWVAKTGGSPV | 0.654 ± 0.012 |
| ADAFDRGRISVV | 0.792 ± 0.11 |
| ADDTFSERIHSK | 0.7 ± 0.093 |
| ADPNDSPPPASP | 0.617 ± 0.026 |
| ADRGLVSLAIVG | 0.582 ± 0.015 |
| ADRTLLLKQWYG | 0.682 ± 0.037 |

| Sequence | protein stability index |
| --- | --- |
| AEAVQQGVTIGG | 0.68 ± 0.014 |
| AEFSGVVIGRWW | 0.718 ± 0.054 |
| AEGPWMEDGDMG | 0.7024 ± 0.0028 |
| AELSPGLSVLLL | 0.705 ± 0.013 |
| AERGRMLSEGKW | 0.701 ± 0.053 |
| AFCCRSPPSSHP | 0.655 ± 0.096 |
| AFCPLLLRGTAP | 0.697 ± 0.045 |
| AFLDISIPSSSL | 0.6857 ± 0.0063 |
| AFQLGMILSLVA | 0.507 ± 0.013 |
| AFRKRTFKQESC | 0.642 ± 0.0098 |
| AFWYACMSLHRS | 0.728 ± 0.07 |
| AFYERLQEWIRA | 0.613 ± 0.014 |
| AGAGGGSLGPAG | 0.651 ± 0.1 |
| AGAGGRAMSDTS | 0.693 ± 0.0087 |
| AGAGRGVVLGWW | 0.684 ± 0.017 |
| AGAGVQAYGRGR | 0.681 ± 0.015 |
| AGANPRVGTFWV | 0.664 ± 0.032 |
| AGARGVAGWLPR | 0.684 ± 0.041 |
| AGARVGAPASTR | 0.664 ± 0.028 |
| AGAWVRVVVGWG | 0.737 ± 0.012 |
| AGCLSGPVDILL | 0.703 ± 0.046 |
| AGEDRGSRWVCI | 0.699 ± 0.032 |
| AGFTATTPIRGV | 0.715 ± 0.022 |
| AGGAGGCRGWSI | 0.705 ± 0.018 |
| AGGGCALGDGWS | 0.649 ± 0.021 |
| AGGGEASRGQAK | 0.596 ± 0.0062 |

| Sequence | protein stability index |
| --- | --- |
| AGGGKGGGGGEK | 0.649 ± 0.029 |
| AGGGRGGGSLRV | 0.669 ± 0.034 |
| AGGIAVYFGEEE | 0.746 ± 0.055 |
| AGGLGGSILCLV | 0.556 ± 0.025 |
| AGGSVCRESLEV | 0.694 ± 0.064 |
| AGGTMVVVVRSC | 0.51175 ± 3.2e-05 |
| AGGVCHVSSLLA | 0.64 ± 0.021 |
| AGGVESGGRSGV | 0.679 ± 0.02 |
| AGHGGWREAGGG | 0.685 ± 0.0076 |
| AGLCVSIGVGRG | 0.652 ± 0.015 |
| AGLGHVPGEHSV | 0.613 ± 0.033 |
| AGLPGSSFWWVF | 0.682 ± 0.058 |
| AGLVADGYWLRR | 0.6892 ± 0.005 |
| AGLWWGGCAAGA | 0.804 ± 0.037 |
| AGRAPRGSWECS | 0.719 ± 0.18 |
| AGRGEIVINGKR | 0.615 ± 0.07 |
| AGRLEGGRRWRV | 0.69 ± 0.031 |
| AGSDLGLIEGIV | 0.685 ± 0.024 |
| AGSHPSRLGIFS | 0.733 ± 0.033 |
| AGSSSLRGRLRG | 0.69 ± 0.068 |
| AGSTGGGRGRDW | 0.76 ± 0.14 |
| AGTGAHGLREPR | 0.706 ± 0.15 |
| AGTHRDLFQRWS | 0.711 ± 0.046 |
| AGTVGRGVSGGR | 0.5746 ± 0.0044 |
| AGVCVAVGGGGF | 0.676 ± 0.03 |
| AGVDKWLMCEVS | 0.695 ± 0.034 |

| Sequence | protein stability index |
| --- | --- |
| AGVGPTHVRPPR | 0.676 ± 0.0079 |
| AGVRGWGIAVTP | 0.64 ± 0.046 |
| AHGAGCGGRRVA | 0.726 ± 0.023 |
| AHLPHSSFSWRP | 0.707 ± 0.05 |
| AHLPSPRPRPPP | 0.764 ± 0.013 |
| AHYGSNNNGLVF | 0.695 ± 0.042 |
| AIKGIYPRCYFI | 0.697 ± 0.0073 |
| AIKHMVSHSPGN | 0.683 ± 0.08 |
| AILFSASLTLLL | 0.598 ± 0.012 |
| AILPFGLLPTHR | 0.745 ± 0.017 |
| AILTLVQEVRKY | 0.6203 ± 0.00088 |
| AIPLPVLSFPPL | 0.737 ± 0.024 |
| AIPLYAPSQPCE | 0.696 ± 0.027 |
| AIRGGPGGDKEP | 0.682 ± 0.024 |
| AISCPFIRFSSL | 0.614 ± 0.0091 |
| AITSPLGFGVLG | 0.717 ± 0.015 |
| AKEENQRKYTRR | 0.637 ± 0.13 |
| AKGRRRRGRWWG | 0.682 ± 0.032 |
| AKLVESISEVAT | 0.6766 ± 0.0052 |
| AKRLYLLTNRND | 0.634 ± 0.025 |
| AKSKVAGNVGGD | 0.669 ± 0.017 |
| ALCEVLSKSFEF | 0.6617 ± 0.0025 |
| ALCSGCFAFLGA | 0.676 ± 0.11 |
| ALEFNGLVAGRL | 0.727 ± 0.081 |
| ALGVRVSVLGVL | 0.642 ± 0.0075 |
| ALKVMYMHTGKG | 0.62 ± 0.041 |

| Sequence | protein stability index |
| --- | --- |
| ALLLTLTCGLFF | 0.521 ± 0.019 |
| ALMITIMNNREF | 0.649 ± 0.021 |
| ALPLPLLACSPL | 0.6268 ± 0.0034 |
| ALRLLRFPSPPP | 0.628 ± 0.049 |
| ALRVSGAYREHS | 0.735 ± 0.032 |
| ALSPAFSPLFLP | 0.668 ± 0.036 |
| ALSSVPPCSLPP | 0.637 ± 0.016 |
| ALSVGGGSGSWY | 0.736 ± 0.014 |
| ALVQWRVGGCGG | 0.709 ± 0.085 |
| ALWARSGRVILI | 0.674 ± 0.05 |
| AMGSGLVWAGPA | 0.684 ± 0.03 |
| ANQGRRPWRGMC | 0.585 ± 0.14 |
| ANRSPLFCVTFG | 0.695 ± 0.027 |
| APACRLTLVSDF | 0.752 ± 0.014 |
| APARPPVTLSTN | 0.671 ± 0.013 |
| APARTTPRLPFA | 0.724 ± 0.069 |
| APDPPGLRGLSP | 0.719 ± 0.015 |
| APDRLPLSRCPA | 0.699 ± 0.02 |
| APFMSLSNTIAR | 0.677 ± 0.026 |
| APFPMVSSLSFL | 0.761 ± 0.037 |
| APGLPSFRSLFA | 0.676 ± 0.016 |
| APHAPPPSFPAP | 0.729 ± 0.0097 |
| APHPPPPDPPLP | 0.697 ± 0.04 |
| APKVYVAAYTPL | 0.676 ± 0.025 |
| APKYPIQEWIKL | 0.594 ± 0.031 |
| APLFASSASIPL | 0.716 ± 0.11 |

| Sequence | protein stability index |
| --- | --- |
| APLLQCPILARP | 0.588 ± 0.0067 |
| APLSLPPPPSPH | 0.696 ± 0.033 |
| APPALPPLSPFP | 0.705 ± 0.091 |
| APPAPPTYLAPF | 0.729 ± 0.069 |
| APPPLLPLRPFR | 0.606 ± 0.1 |
| APPPLPPARSPP | 0.6541 ± 0.0056 |
| APPPLPPTPPPL | 0.7017 ± 0.0031 |
| APPPNSLPPPPP | 0.72 ± 0.022 |
| APPPPLPAPQLR | 0.6186 ± 0.0011 |
| APPPPSPPSLAS | 0.736 ± 0.074 |
| APPPRPPPPPQL | 0.67 ± 0.031 |
| APPPSPPALVLP | 0.641 ± 0.026 |
| APRCCPHLLRFR | 0.655 ± 0.055 |
| APSPRPSRPPPL | 0.671 ± 0.034 |
| APSQPPTPPPIS | 0.665 ± 0.03 |
| APSTFRPPTPPS | 0.711 ± 0.03 |
| APVLPKPSPFSF | 0.629 ± 0.01 |
| APWSQLRSPPAL | 0.769 ± 0.037 |
| AQIGTKINTRKT | 0.599 ± 0.04 |
| AQPAPAPALADV | 0.667 ± 0.039 |
| AQPPPPPAPTPS | 0.674 ± 0.093 |
| AQSPRFPYRNYH | 0.693 ± 0.049 |
| AQTASQSPYRVG | 0.731 ± 0.017 |
| ARADILLLTWGV | 0.604 ± 0.027 |
| ARAGLVGDARGM | 0.641 ± 0.026 |
